This note sets out measurements from US20240376207A1 (JIANGSU HENGRUI PHARMACEUTICALS, published 2024).

Assay [1] deals with T1, cynomolgus monkey PVRIG expressed on cells (cynomolgus monkey, UniProt A0A2K5WVV8 1-322).
T1 construct: whole, on cells; also called Monkey PVRIG FACS; cells overexpressing cynomolgus monkey PVRIG
T1 sequence: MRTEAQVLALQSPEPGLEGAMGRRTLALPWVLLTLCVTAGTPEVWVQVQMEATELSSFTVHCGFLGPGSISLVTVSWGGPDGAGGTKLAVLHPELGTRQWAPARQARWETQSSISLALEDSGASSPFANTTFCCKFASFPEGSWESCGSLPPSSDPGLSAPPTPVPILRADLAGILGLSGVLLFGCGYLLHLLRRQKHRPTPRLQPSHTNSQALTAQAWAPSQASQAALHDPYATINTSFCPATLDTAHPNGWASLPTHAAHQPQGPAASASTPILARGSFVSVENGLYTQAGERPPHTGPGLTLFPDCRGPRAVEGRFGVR
The assay is described as follows: FACS, cells overexpressing target. (A flow cytometer gives signals particle by particle.)

Assay [2] concerns the target T2, human TIGIT antigen (AcroBiosystem, TIT-H52H3) (human, UniProt Q495A1 22-141).
T2 sequence (looked up): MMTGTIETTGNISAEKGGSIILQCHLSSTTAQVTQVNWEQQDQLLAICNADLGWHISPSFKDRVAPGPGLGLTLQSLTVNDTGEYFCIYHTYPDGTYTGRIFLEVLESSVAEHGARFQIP
The experiment in a line: SPR (Biacore X100), antibody captured on Protein A chip, 1:1 fit. The source says: (§1) The affinity of the humanized bispecific antibodies for human PVRIG, cynomolgus monkey PVRIG and human TIGIT was detected using Biacore. Humanized bispecific antibodies were each captured on a Protein A biosensor chip (GE lifesciences, 29127557) of a Biacore instrument (Biacore X100, GE), and then human PVRIG antigen (AcroBiosystem, PVG-H52H4), cynomolgus monkey PVRIG antigen (SEQ ID NO: 1), or human TIGIT antigen (AcroBiosystem, TIT-H52H3) at a series of concentration gradients each flowed over the chip surface. The reaction signals were detected in real time using a Biacore instrument (Biacore X100, GE) to obtain association and dissociation curves. The data obtained from the experiment were fitted using the (1:1) Binding model with the BiacoreX100 evaluation software 2.0 GE to obtain affinity values (see Table 31).
(In general: SPR reads the build-up and loss of mass on a sensor chip optically.)

For assay [3], the target named is T3, human PVRIG antigen (AcroBiosystem, PVG-H52H4) (human, UniProt Q6DKI7 41-171, limits assumed).
T3 sequence (looked up): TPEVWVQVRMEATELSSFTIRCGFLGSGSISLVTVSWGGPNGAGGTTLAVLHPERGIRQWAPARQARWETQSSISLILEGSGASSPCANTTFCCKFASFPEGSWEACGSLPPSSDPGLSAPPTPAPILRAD
The description is as above.
Excerpt: as §1

The target in assay [4] is T4, his-tagged cynomolgus monkey PVRIG (cyno-PVRIG-his) recombinant protein (cynomolgus monkey).
T4 construct: expressed in HEK293, purified by Ni-NTA; also called Monkey PVRIG-his; cynomolgus monkey PVRIG recombinant protein
T4 chain: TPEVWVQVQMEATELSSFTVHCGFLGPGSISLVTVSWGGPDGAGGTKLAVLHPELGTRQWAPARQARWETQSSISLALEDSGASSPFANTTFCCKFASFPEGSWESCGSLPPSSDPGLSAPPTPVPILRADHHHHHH
Described as above.
Excerpt: as §1

In assay [5] the target is T5, human TIGIT recombinant protein (human, UniProt Q495A1 22-141, limits assumed).
T5 construct: construct not described; also called human TIGT recombinant protein
T5 sequence (looked up): T2 sequence (looked up)
The experiment in a line: competition ELISA; human TIGIT, competitor human PVR. Here is the method: The h-PVRIG-mIgG2a Fc protein (at a concentration of 1 μg/mL) was coated on the 96-well microplate at 100 μL per well, and incubated overnight at 4° C. The plate was washed three times with wash buffer at 250 μL per well. For each wash, the plate was shaken for 10 s to ensure adequate cleaning. A blocking solution was added at 300 μL/well, and the plate was incubated at room temperature for 1 h. The plate was washed three times with wash buffer at 250 μL per well. For each wash, the plate was shaken for 10 s to ensure adequate cleaning. 50 μL of diluted test anti-PVRIG antibody and 50 μL of his-tagged ligand PVRL2 were added to each well, and the plate was incubated at 37° C. for 1 h. The plate was washed three times with wash buffer at 250 μL per well. The HRP-labeled anti-his-tagged secondary antibody (Genscrpit) diluted at 1:2000 was added at 100 μL per well. The plate was incubated at 37° C. for 1 h. The plate was washed three times with wash buffer at 250 μL per well. TMB was added at 100 μL/well, and the plate was incubated in the dark for 15 min. 0.16 M sulfuric acid was added at 50 μL/well. OD values at 450 nm were measured using a Thermo MμtLtiSkanFc microplate reader, and the IC₅₀ values of the anti-PVRIG antibodies blocking the binding of PVRIG to PVRL2 were calculated.
Similarly to Examples 4, 5 and 6, the binding of humanized anti-PVRIG/TIGIT bispecific antibodies to human and cynomolgus monkey TIGIT and blocking of binding of human TIGIT to ligand were detected, where PVRIG protein was replaced with TIGIT and PVRL2 was replaced with PVR.
In general terms: ELISA stands for enzyme-linked immunosorbent assay.

B1: humanized anti-PVRIG/TIGIT bispecific antibody 1708-20H5 (bispecific antibody, human IgG4 S228P, kappa)
heavy: not shown
light: DIQMTQSPSSLSASVGDRVTITCRASENIYSYLAWYQQKPGKSPKLLIYNARTLAEGVPSRFSGSGSGTDFTLTISSLQPEDFATYYCQYHSGSPLPFGGGTKVEIKRTVAAPSVFIFPPSDEQLKSGTASVVCLLNNFYPREAKVQWKVDNALQSGNSQESVTEQDSKDSTYSLSSTLTLSKADYEKHKVYACEVTHQGLSSPVTKSFNRGEC
Consider B1, for which the EC50 (commonly the concentration that produces a half-maximal response) in assay [1] is 0.07 nM. Besides, in assay [2], the Kd (commonly a measure of binding affinity in units of concentration) amounted to 0.0763 nM; the koff (in general, the first-order rate constant of dissociation) was 0.00015 s⁻¹; the kon (usually a measure of how fast the partners come together) was 1.97e+06 M⁻¹ s⁻¹. In assay [3], this molecule gave a Kd of 0.00782 nM, a koff of 0.00013 s⁻¹ and a kon of 1.67e+07 M⁻¹ s⁻¹. Also, in assay [4], the Kd was 7.05 nM, the koff is 0.181 s⁻¹ and the kon worked out at 2.56e+07 M⁻¹ s⁻¹. Besides, the IC50 – broadly, the midpoint of a concentration-inhibition curve – in assay [5] was found to be 1.02 nM.

B2: humanized anti-PVRIG/TIGIT bispecific antibody 1708-30H2 (bispecific antibody, human IgG4 S228P, kappa)
heavy: not shown
light: B1 light
In assay [1], B2 came in with an EC50 of 3.54 nM. In assay [2], this molecule showed a Kd of 0.0512 nM, a koff of 0.000158 s⁻¹ and a kon of 3.08e+06 M⁻¹ s⁻¹. Besides, in assay [3], the affinity, expressed as Kd, was 0.706 nM; the koff is 0.00912 s⁻¹; the kon was 1.29e+07 M⁻¹ s⁻¹. Besides, in assay [4], the Kd came out at 31.9 nM, the koff came out at 0.581 s⁻¹ and the kon amounted to 1.82e+07 M⁻¹ s⁻¹. For the same molecule, the IC50 in assay [5] is 1.01 nM.
